Laboratory results: publication PMC6005765 (Bioorganic & medicinal chemistry letters, 2018)
Starred links: 1 amine or outer side, 2 acyl side, 3 side chain; linkers in the order of their positions; H or OH if unused. Non-standard residues stand in square brackets, D forms with d. Residues, ends and D or L forms follow the SMILES beside them. No end group written: not given here. Phe(2-(4-CF3-phenyl)) = O=C([C@H](Cc1ccccc1-c1ccc(C(F)(F)F)cc1)N[*:1])[*:2]; Phe(2-(2-methyl-1-propenyl)) = CC(C)=Cc1ccccc1C[C@H](N[*:1])C(=O)[*:2]; Phe(2-(4-MeO-phenyl)) = COc1ccc(-c2ccccc2C[C@H](N[*:1])C(=O)[*:2])cc1; Phe(2-(4-Cl-phenyl)) = O=C([C@H](Cc1ccccc1-c1ccc(Cl)cc1)N[*:1])[*:2]; Phe(2-(4-F-phenyl)) = O=C([C@H](Cc1ccccc1-c1ccc(F)cc1)N[*:1])[*:2]; Phe(3-(3-thienyl)) = O=C([C@H](Cc1cccc(-c2ccsc2)c1)N[*:1])[*:2]; Phe(4-(3-thienyl)) = O=C([C@H](Cc1ccc(-c2ccsc2)cc1)N[*:1])[*:2]; Phe(2-(3-thienyl)) = O=C([C@H](Cc1ccccc1-c1ccsc1)N[*:1])[*:2]; Phe(3-vinyl) = C=Cc1cccc(C[C@H](N[*:1])C(=O)[*:2])c1; Phe(4-vinyl) = C=Cc1ccc(C[C@H](N[*:1])C(=O)[*:2])cc1; Phe(2-vinyl) = C=Cc1ccccc1C[C@H](N[*:1])C(=O)[*:2]; Phe(3-Ph) = N[C@@H](Cc1cccc(-c2ccccc2)c1)C(=O)O; Phe(2-Ph) = N[C@@H](Cc1ccccc1-c1ccccc1)C(=O)O; Bip = N[C@@H](Cc1ccc(-c2ccccc2)cc1)C(=O)O; Dmt = Cc1cc(O)cc(C)c1C[C@H](N)C(=O)O; dNMeA = CN[C@H](C)C(=O)O

B1: Dmt-D-Arg-Phe(2-(4-CF3-phenyl))-Gly-NH2 (peptide)
peptide: [Dmt][dR][Phe(2-(4-CF3-phenyl))]G-NH2
modifications: N-terminus assumed
SMILES: Cc1cc(O)cc(C)c1C[C@H](N)C(=O)N[C@H](CCCNC(=N)N)C(=O)N[C@@H](Cc1ccccc1-c1ccc(C(F)(F)F)cc1)C(=O)NCC(N)=O
B2: Dmt-D-Ala-Phe(2-vinyl)-Gly-NH2 (peptide)
peptide: [Dmt][dA][Phe(2-vinyl)]G-NH2
modifications: N-terminus assumed
SMILES: C=Cc1ccccc1C[C@H](NC(=O)[C@@H](C)NC(=O)[C@@H](N)Cc1c(C)cc(O)cc1C)C(=O)NCC(N)=O
B3: Dmt-D-Arg-Phe(2-(4-Cl-phenyl))-Gly-NH2 (peptide)
peptide: [Dmt][dR][Phe(2-(4-Cl-phenyl))]G-NH2
modifications: N-terminus assumed
SMILES: Cc1cc(O)cc(C)c1C[C@H](N)C(=O)N[C@H](CCCNC(=N)N)C(=O)N[C@@H](Cc1ccccc1-c1ccc(Cl)cc1)C(=O)NCC(N)=O
B4: Dmt-D-Arg-Phe(2-phenyl)-Gly-NH2 (peptide)
peptide: [Dmt][dR][Phe(2-Ph)]G-NH2
modifications: N-terminus assumed
SMILES: Cc1cc(O)cc(C)c1C[C@H](N)C(=O)N[C@H](CCCNC(=N)N)C(=O)N[C@@H](Cc1ccccc1-c1ccccc1)C(=O)NCC(N)=O
B5: Dmt-D-Arg-Phe(4-vinyl)-Gly-NH2 (peptide)
peptide: [Dmt][dR][Phe(4-vinyl)]G-NH2
modifications: N-terminus assumed
SMILES: C=Cc1ccc(C[C@H](NC(=O)[C@@H](CCCNC(=N)N)NC(=O)[C@@H](N)Cc2c(C)cc(O)cc2C)C(=O)NCC(N)=O)cc1
B6: Dmt-D-Arg-Phe-Gly-NH2 (peptide)
peptide: [Dmt][dR]FG-NH2
modifications: N-terminus assumed
SMILES: Cc1cc(O)cc(C)c1C[C@H](N)C(=O)N[C@H](CCCNC(=N)N)C(=O)N[C@@H](Cc1ccccc1)C(=O)NCC(N)=O
B7: Dmt-D-Arg-Phe(2-(4-F-phenyl))-Gly-NH2 (peptide)
peptide: [Dmt][dR][Phe(2-(4-F-phenyl))]G-NH2
modifications: N-terminus assumed
SMILES: Cc1cc(O)cc(C)c1C[C@H](N)C(=O)N[C@H](CCCNC(=N)N)C(=O)N[C@@H](Cc1ccccc1-c1ccc(F)cc1)C(=O)NCC(N)=O
B8: Dmt-D-Arg-Phe(2-(2-methyl-1-propenyl)-Gly-NH2 (peptide)
peptide: [Dmt][dR][Phe(2-(2-methyl-1-propenyl))]G-NH2
modifications: N-terminus assumed
SMILES: CC(C)=Cc1ccccc1C[C@H](NC(=O)[C@@H](CCCNC(=N)N)NC(=O)[C@@H](N)Cc1c(C)cc(O)cc1C)C(=O)NCC(N)=O
B9: Dmt-D-Arg-Phe(3-vinyl)-Gly-NH2 (peptide)
peptide: [Dmt][dR][Phe(3-vinyl)]G-NH2
modifications: N-terminus assumed
SMILES: C=Cc1cccc(C[C@H](NC(=O)[C@@H](CCCNC(=N)N)NC(=O)[C@@H](N)Cc2c(C)cc(O)cc2C)C(=O)NCC(N)=O)c1
B10: Dmt-D-Ala-Phe(2-phenyl)-Gly-NH2 (peptide)
peptide: [Dmt][dA][Phe(2-Ph)]G-NH2
modifications: N-terminus assumed
SMILES: Cc1cc(O)cc(C)c1C[C@H](N)C(=O)N[C@H](C)C(=O)N[C@@H](Cc1ccccc1-c1ccccc1)C(=O)NCC(N)=O
B11: Dmt-D-Arg-Phe(2-vinyl)-Gly-NH2 (peptide)
peptide: [Dmt][dR][Phe(2-vinyl)]G-NH2
modifications: N-terminus assumed
SMILES: C=Cc1ccccc1C[C@H](NC(=O)[C@@H](CCCNC(=N)N)NC(=O)[C@@H](N)Cc1c(C)cc(O)cc1C)C(=O)NCC(N)=O
B12: Dmt-D-Arg-Phe(2-(4-MeO-phenyl))-Gly-NH2 (peptide)
peptide: [Dmt][dR][Phe(2-(4-MeO-phenyl))]G-NH2
modifications: N-terminus assumed
SMILES: COc1ccc(-c2ccccc2C[C@H](NC(=O)[C@@H](CCCNC(=N)N)NC(=O)[C@@H](N)Cc2c(C)cc(O)cc2C)C(=O)NCC(N)=O)cc1
B13: Dmt-D-Arg-Phe(3-(3-thienyl))-Gly-NH2 (peptide)
peptide: [Dmt][dR][Phe(3-(3-thienyl))]G-NH2
modifications: N-terminus assumed
SMILES: Cc1cc(O)cc(C)c1C[C@H](N)C(=O)N[C@H](CCCNC(=N)N)C(=O)N[C@@H](Cc1cccc(-c2ccsc2)c1)C(=O)NCC(N)=O
B14: Dmt-N-Me-D-Ala-Phe(2-vinyl)-Gly-NH2 (peptide)
peptide: [Dmt][dNMeA][Phe(2-vinyl)]G-NH2
modifications: N-terminus assumed
SMILES: C=Cc1ccccc1C[C@H](NC(=O)[C@@H](C)N(C)C(=O)[C@@H](N)Cc1c(C)cc(O)cc1C)C(=O)NCC(N)=O
B15: Dmt-D-Arg-Phe(3-phenyl)-Gly-NH2 (peptide)
peptide: [Dmt][dR][Phe(3-Ph)]G-NH2
modifications: N-terminus assumed
SMILES: Cc1cc(O)cc(C)c1C[C@H](N)C(=O)N[C@H](CCCNC(=N)N)C(=O)N[C@@H](Cc1cccc(-c2ccccc2)c1)C(=O)NCC(N)=O
B16: Dmt-D-Arg-Phe(4-phenyl)-Gly-NH2 (peptide)
peptide: [Dmt][dR][Bip]G-NH2
modifications: N-terminus assumed
SMILES: Cc1cc(O)cc(C)c1C[C@H](N)C(=O)N[C@H](CCCNC(=N)N)C(=O)N[C@@H](Cc1ccc(-c2ccccc2)cc1)C(=O)NCC(N)=O
B17: Dmt-D-Arg-Phe(4-(3-thienyl))-Gly-NH2 (peptide)
peptide: [Dmt][dR][Phe(4-(3-thienyl))]G-NH2
modifications: N-terminus assumed
SMILES: Cc1cc(O)cc(C)c1C[C@H](N)C(=O)N[C@H](CCCNC(=N)N)C(=O)N[C@@H](Cc1ccc(-c2ccsc2)cc1)C(=O)NCC(N)=O
B18: Dmt-D-Arg-Phe(2-(3-thienyl))-Gly-NH2 (peptide)
peptide: [Dmt][dR][Phe(2-(3-thienyl))]G-NH2
modifications: N-terminus assumed
SMILES: Cc1cc(O)cc(C)c1C[C@H](N)C(=O)N[C@H](CCCNC(=N)N)C(=O)N[C@@H](Cc1ccccc1-c1ccsc1)C(=O)NCC(N)=O

Assays:
[1] = tested on: guinea pig ileum (GPI), MOP; settings: for Functional character in GPI assay: in vitro
δ opioid receptor (DOP) = δ opioid receptor (DOP) (Homo sapiens, UniProt P41143); type: binding
μ opioid receptor (MOP) = μ opioid receptor (MOP) (Homo sapiens, UniProt P35372); type: binding; settings: for MOP IC50: [125I]-DAMGO competition, HEK293 membranes
Sequence of μ opioid receptor (MOP) (P35372 whole entry, species assumed): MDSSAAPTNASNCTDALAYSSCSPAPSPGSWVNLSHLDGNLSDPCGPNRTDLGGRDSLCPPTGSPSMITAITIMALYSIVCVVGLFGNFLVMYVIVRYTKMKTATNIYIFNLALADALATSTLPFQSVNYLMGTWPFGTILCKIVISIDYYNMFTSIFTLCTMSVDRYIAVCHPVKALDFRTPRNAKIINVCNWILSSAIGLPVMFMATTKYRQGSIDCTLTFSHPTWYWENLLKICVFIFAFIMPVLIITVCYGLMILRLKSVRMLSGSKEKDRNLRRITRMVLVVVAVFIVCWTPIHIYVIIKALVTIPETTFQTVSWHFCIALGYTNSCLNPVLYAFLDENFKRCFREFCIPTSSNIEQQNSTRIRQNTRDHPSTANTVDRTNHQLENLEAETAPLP

μ opioid receptor [2] = molecular target: μ opioid receptor (UniProt P35372)
δ opioid receptor [3] = molecular target: δ opioid receptor (UniProt P41143)
δ opioid receptor [4] = molecular target: δ opioid receptor (UniProt P41143); remark: listed apart in the source
δ opioid receptor [5] = molecular target: δ opioid receptor (UniProt P41143); experiment: radioligand binding
μ opioid receptor [6] = molecular target: μ opioid receptor (UniProt P35372); experiment: radioligand binding

Molecule | IC50 in the guinea pig ileum (GPI) assay (μ opioid receptor [2]) | IC50 in the mouse vas deferens (MVD) assay (δ opioid receptor [4]) | IC50 (δ opioid receptor [5]) | IC50 (μ opioid receptor [6]) | also measured
Cc1cc(O)cc(C)c1C[C@H](N)C(=O)N[C@H](CCCNC(=N)N)C(=O)N[C@@H](Cc1ccc(-c2ccccc2)cc1)C(=O)NCC(N)=O [Compound 1, Dmt-D-Arg-Phe(4-phenyl)-Gly-NH2] (H-[Dmt][dR][Bip]G-NH2) | – | – | – | – | Functional character in GPI assay [1]: μ-opioid antagonism
Cc1cc(O)cc(C)c1C[C@H](N)C(=O)N[C@H](CCCNC(=N)N)C(=O)N[C@@H](Cc1ccccc1-c1ccc(F)cc1)C(=O)NCC(N)=O [Compound 12, Dmt-D-Arg-Phe(2-(4-F-phenyl))-Gly-NH2] | – | – | – | – | IC50 (δ opioid receptor (DOP)): 435 ± 26 nM; IC50 (μ opioid receptor (MOP)): 0.47 ± 0.06 nM; Selectivity IC50δ/IC50μ (μ opioid receptor (MOP); ratio DOP IC50 / MOP IC50): 925; IC50 ([1]; read-out: IC50 (GPI), agonist potency): 0.801 ± 0.086 nM
DAMGO (peptide) | 28.3 nM | – | – | – | EPAC DOP EC50 (EPAC cAMP BRET-based biosensor assay) (δ opioid receptor [3]): 49 nM
Deltorphin II (peptide) | 854 nM | – | – | – | –
Cc1cc(O)cc(C)c1C[C@H](N)C(=O)N[C@H](CCCNC(=N)N)C(=O)N[C@@H](Cc1ccc(-c2ccsc2)cc1)C(=O)NCC(N)=O [Compound 4, Dmt-D-Arg-Phe(4-(3-thienyl))-Gly-NH2] | – | – | – | – | Functional character in GPI assay [1]: μ-opioid antagonism
Cc1cc(O)cc(C)c1C[C@H](N)C(=O)N[C@H](C)C(=O)N[C@@H](Cc1ccccc1-c1ccsc1)C(=O)NCC(N)=O [Compound 16, Dmt-D-Ala-Phe(2-(3-thienyl))-Gly-NH2] | – | – | – | – | MOP IC50 (μ opioid receptor (MOP)): poor affinity for MOP
C=Cc1ccccc1C[C@H](NC(=O)[C@@H](CCCNC(=N)N)NC(=O)[C@@H](N)Cc1c(C)cc(O)cc1C)C(=O)NCC(N)=O [Compound 9, Dmt-D-Arg-Phe(2-vinyl)-Gly-NH2] | – | – | – | – | MOP IC50 (μ opioid receptor (MOP)): subnanomolar binding affinity
B1 | 1.26 nM | 1.78 nM | – | – | EPAC DOP EC50 (EPAC cAMP BRET-based biosensor assay) (δ opioid receptor [3]): 26.8 nM
B2 | 1.18 nM | 2.81 nM | 8 nM | 0.25 nM | –
B3 | 2.39 nM | 1.63 nM | – | – | –
B4 | 3.47 nM | 6.99 nM | 20.2 nM | 0.54 nM | –
B5 | 24.1 nM | 430 nM | 1420 nM | 1.82 nM | –
B6 | 2.26 nM | 0.316 nM | – | – | EPAC DOP EC50 (EPAC cAMP BRET-based biosensor assay) (δ opioid receptor [3]): 1.13 nM
B7 | 0.801 nM | 2.95 nM | – | – | –
B8 | 0.701 nM | 0.63 nM | 585 nM | 0.57 nM | EPAC DOP EC50 (EPAC cAMP BRET-based biosensor assay) (δ opioid receptor [3]): 19.4 nM
B9 | 1.43 nM | 9.74 nM | 165 nM | 0.46 nM | –
B10 | 1.6 nM | 2.6 nM | 19.8 nM | 0.35 nM | –
B11 | 0.389 nM | 0.406 nM | 18 nM | 0.47 nM | EPAC DOP EC50 (EPAC cAMP BRET-based biosensor assay) (δ opioid receptor [3]): 7 nM
B12 | 0.901 nM | 5.23 nM | – | – | –
B13 | 30.4 nM | – | 601 nM | 1.03 nM | IC35 (partial agonist) in the mouse vas deferens (MVD) assay (δ opioid receptor [4]): 52.8 nM
B14 | 0.641 nM | 0.689 nM | – | – | –
B15 | 61.7 nM | – | 269 nM | 0.85 nM | IC40 (partial agonist) in the mouse vas deferens (MVD) assay (δ opioid receptor [4]): 117 nM
B16 | – | – | 42.3 nM | 7.08 nM | IC20 (partial agonist) in the mouse vas deferens (MVD) assay (δ opioid receptor [4]): 3.09 µM
B17 | – | – | 309 nM | 5.04 nM | IC20 (partial agonist) in the mouse vas deferens (MVD) assay (δ opioid receptor [4]): 3.96 µM
B18 | 1.54 nM | 2.75 nM | 625 nM | 1.45 nM | EPAC DOP EC50 (EPAC cAMP BRET-based biosensor assay) (δ opioid receptor [3]): 49 nM
